The nature of the series: soluble on expression in E. coli; label from the status in PepcDB or PDB records.
On to “MSLKLNTSNSPFTEKQVTEINNLLQTLTESQQQWLSGFLLANSNDTTSDSNQQQLETEVWQQSQISEEQATSTTYMLQNKEPHIEANQRHVTVLYGSESGNAMRLAEIFSERLSDIGHQVVLMSMDEYDTTNIAQLEDLFIITSTHGEGEPPDNAWDFFEFLEDDNAPNLNHVRYSVLALGDQTYEFFCQAGKDVDALLENLGAERICKRVDCDIDYEEDAEKWMADIINMIDTTSEGIQSESVISESIKSAKEKKYSKLNPYQAEVLANINLNGTDSNKETRHIEFLLDDFSESYEPGDCIVALPQNDPELVEKLISMLGWDPQSPVPINDRGDTVPIVEALTSHFEFTKLTLPLLKNADIYFDNEELSERIQDESWAREYVINRDFIDLITDFPTIELQPENMYQILRKLPPREYSISSSFMATPDEVHITVGTVRYQAHGRERKGVCSVHFAERIKPGDIVPIYLKKNPNFKFPMKQDIPVIMIGPGTGIAPFRAYLQEREELGMTGKTWLFFGDQHRSSDFLYEEEIEEWLENGNLTRVDLAFSRDQEHKEYVQHRIMEESERFNEWIEQGAAIYICGDEKCMAKDVHQAIKDVLVKERHISQEEAELLLRQMKQQQRYQRDVYEGHHHHHH”, for which the “soluble on expression in E. coli” value was “soluble”.

For “MAESCVKPQLPRPRIPNIRVFQPTTRIPTFTYEQFNESVEILPSRPECLYRRNDPTNRSYRMKKRPPAQIYHCVQCNKHIKYPSKITEHIRKHTGEKPNVCSICNISFSQAHTLKTHMQQHAHEKPYKCSFCTAEFLNVYEKNEHEEQHMHHPNHGETMEENNATTSQFIQVAEPTIQAEPCQIYECSEMCGFQSYEEAEVVEHMTVTHYQQTKKSKEIPKLKNPGFSINFNYFQVQNGLILQDFNGEPEPIYEFYEEQYVQQVPTEIEETPTIKQQSIPYENLHFEHVEAAPGPSEPHLQVVAEGEILYDGEEIVDISNGKSLKEEIQNGDANIYGMIQDLEEEVEDIGNEDEERERVRIMVNPNPPKRGTKSLRDHHEATAATMEMIVDASILELAEPSRHLKQGYPPISKRKNTGKRAENLDWIIDAVAKGVDVSEASPHHRKKPTLHKCEYCGRVDKYPSKIRAHMRTHTGEKPFKCEICGMAFSQKTPMRLHLRRHFDQKPYECDVDGCKERFVSGAILKMHVEKKHLNKKKYVCSRGCGRVFSSAYNQKHHEKKCEQTYVTWVEGEQQSVESGEEDEESNGEYPDDDEEYMDDMIDASTSQPINRVVEHFSEEPVFLHQ”, the “soluble on expression in E. coli” value is “not soluble”. For the sequence “SNASYRSTQQITDFTKEILVNGEAVTAFDRQGDLPNVVVTPNFEAGVDQVVDQLAMNDSERDTTAIIGKSLAECEALTKALKARGEQVTLIQTENQRLAPGVIVVPSFLAKGLEFDAVIVWNANQENYQREDERQLLYTICSRAMHELTLVAVGSLSPLLARVNHALYTLNEAK”, the “soluble on expression in E. coli” value was “soluble”.

For “MGHHHHHHSHMSLTTSHFIPFPREMVWDWHTRKGAVARLTPPFIPLNPITQAERLADGTTIFSLPAGLKWVARHDLSGFLNGSRFTDVCLTAPVKALANWRHVHNFVDQDGGTLITDSVSTRLPASTLTGMFAYRQTQLIEDLKF”, the “soluble on expression in E. coli” value is recorded as “not soluble”.

Take “MAHHHHHHMKCVVCDADKAGYRCRACRSAYCSSQCYRKHRMSREEAAAQVANINAATSSFAHLCETVVAAQRPQKELDEKRQRTEAEADVFSDVSREKVAAAGAVHGSENDAPPPSTAPAVETAWKTATGASEASGPACAEPQPSARTEYAGDSDAVYILQEKHLGALAHDPRVRSALRSPSLQKLIKTIDSSRSRLDALEAAQYNNADFKGFCDAVLRVIAEVEGR”: the “soluble on expression in E. coli” value is given as “soluble”.

With “MIDGAEVSVSRGKNNPFYFNSDRWFHTLFRNQFGHLRVLQRFDQRSKQMQNLENYRVVEFNSKPNTLLLPHHADADFLLVVLNGRAVLTLVNPDGRDSNILEQGHAQKIPAGTTFFLVNPDDEENLRIIKLAVPVNNPHRFQDFFLSSTEAQQSYLQGFSKNILEASFDSDIKEISRVLFGEEGQQQQQGQESQQEGVIVELKREQIRELTKHAKSSSKKSLSSEDQPFNLRNQKPIYSNKLGRWFEITPEKNPQLRDLDMFIRSVDMKEGSLLLPHYNSKAIVILVINEGKANIELVGQREQQKQQEEQEESWEVQRYRAELSEDDVFIIPATYPVAINATSNLNFFAFGINAENNQRNFLAGEKDNVISEIPTEVLDVTFPASGEKVQKLIKKQSESQFVDAQPEQQEREEARKGGKGPFVY”, the “soluble on expression in E. coli” value is reported as “soluble”.

“MSLQRVSNRLIEQSDIENMPNTWKKQAYRQIAKKLGPKSNFPCIFSKNAYKKGLLQFVFMESISHDQMEELKVCLTEFIEANKEWDHRISTAKPLLIVFSTQAIKSERLEDYHSFGWNVLRSIHALDPSPWPHGVDKDPSSPNWSMCFNGMQLFINMSCPAHKVRRSRNLGDHFIMVVNPRERFDVVAGDNAKGHRVRDEIRGRIEIYDNCKPCKQLGYFGSDTMEWQQYGIIEENKTRTSKCPYKIDEGHHHHHH”: the “soluble on expression in E. coli” value is “soluble”. Under “MGIYEAIQATIKEAMKARDERTLAFARVVKAELDRKGDGKPLPDEEAVKVLKALKEIALEQGNAFEAEFLDRFLPKEMSEEELEAWIREHVDLSQFKNPLAAIGVVTKALGPKAPGEKVRKVIERLTR” stands “soluble”.

“MALGLKCFRMVHPTFRNYLAASIRPVSEVTLKTVHERQHGHRQYMAYSAVPVRHFATKKAKAKGKGQSQTRVNINAALVEDIINLEEVNEEMKSVIEALKDNFNKTLNIRTSPGSLDKIAVVTADGKLALNQISQISMKSPQLILVNMASFPECTAAAIKAIRESGMNLNPEVEGTLIRVPIPQVTREHREMLVKLAKQNTNKAKDSLRKVRTNSMNKLKKSKDTVSEDTIRLIEKQISQMADDTVAELDRHLAVKTKELLG”: the “soluble on expression in E. coli” value is “soluble”. Under “MSLLSYRHGFHAGNQADVFKHSALFSFLKVYTQKQKPFTAFDLNAGSASYNLLSEWSLKTGEAEEGIIRFLDLYKKEKLPLPIPEGFKAYLDFCLKNYDENSSYAGSPEIIRSFLQKESNLILCDLHSAEAEKLKELYKRVENVHVHKRDCYEAVRALTPPLPIRGFALFDPSYEVDSDYTAIAESVEKVCKKWPIGIFIIWYPILNHKTEECRNLKDRISKAMNNKVLNIEVKHFSNKIDSENEYGLQGSGLLITNPPWGLEEKLKEICEYVEKVSAGLDEGHHHHHH” stands “soluble”; under “MGSDKIHHHHHHMSIGIVIASHGEFAAGIKQSGSMIFGEQEKVQVVTFMPSEGPTDLHAKIEAAIATFDAEDEVLVLADLWSGSPFNQASAVMGENPERKIAIITGLNLPMLIQAYTERMMDASAGVDKVVANIMKEAKGGIKVLPEELQPAEETAVAAAPAAVQGAIPEGTVIGDGKIKINLARIDSRLLHGQVATAWTPDSRANRIIVVSDTVSKDELRKKLIEQAAPTGVKANVIPIKKMIEVAKDPRFGDTKALLLFETPQDALATIEGGVPIETLNVGSMAHSTGKTMLNKVLSMDKDDVATFEKLRDLGVKFDVRKVPADSKSDLFGLINKADVQ”, “not soluble”; under “GLNMYVAGKATLNYLFERYMDTKYNLRENTKVNYKYMYDNYVRNTIGKRLIADIKYSDIVYFYKSLITEKGLELNTVDTIHTVIHPVFSMAVRDDVIRKNPASGVLADIKKESGKNKGIRHALTIEQQRVFMKYMIEEEQFNHWIPIFTILLGTGCRVGEFIGLRWEDVDFKQKVISINHSIAYVCYGKEDGRKSHYAISLPKTEAGIRYIPMTDEVYDVFKAEYYRQQENGFSQFSIEGMSGFIFTNRCGRIYNQQTLNKGLKRISENYNQKELIDA”, “not soluble”. Under “MGSDKIHHHHHHREEAPNAEADILSCRLPGVVMTTSPIITNNSINIFVGPGTDISSLAPEFTLTPGATIDPPSGTARDFHSPQQYTVTAADGFWKKKYTVSVIDTELATIYNFEDTLGGQKYYIFVEREGEKVVMEWASGNAGYAMTGVPKTADDYPTFQFANGKTGKCLSLVTRSTGFFGSIMGMPIAAGNLFIGSFDVGNAMSNPLKATKFGLPFRHIPTYLAGYYKYKAGDQFTEGGKPVSGKRDICDIYAIMYETSESVPTLDGTNAFTSPNLVSIARIDDAKETDEWTYFKLPFHMLSGKYIDKEKLTAGKYNVAIVFTSSLEGDHFNGAIGSTLLIDEVELIYRSED” stands “not soluble”; under “GSSGSSGMCGRFAQSQTREDYLALLAEDIERDIPYDPEPIGRYNVAPGTKVLLLSERDEHLHLDPVFWGYAPGWWDKPPLINARVETAATSRMFKPLWQHGRAICFADGWFEWKKEGDKKQPFFIYRADGQPIFMAAIGSTPFERGDEAEGFLIVTAAADQGLVDIHDRRPLVLSPEAAREWMRQEISGKEASEIAASGCVPANQFSWHPVSRAVGNVKNQGAELIQPV”, “soluble”. For “MANEKQYPMTKEGKEKLEQELEYLKTVKRKEVVERIKIARGFGDLSENSEYDAAKDEQAFVESRIQMLENMIRNAVIIEEDKENPDVVSLGKSVTFIELPDGEEETYTIVGSAEADPFEGKISNDSPIAKSLLGRRVGDEVTVQTPGGEMLVKIVAVK” the value was “soluble”; for “MGSDKIHHHHHHMAGVILLLMGEGLACAHDTALLDKAGRLMASRDYAAAYALLEPVESEYSGDPAYDMLFGLAAIDSGHVTRGVFALERVLAVQPYNGNARAQIARAYFLLGEQEAARAEFRNVLNQQPPEEITQVINRYMSAIDKAQGLTTAFSAYLEGGVGHDSNVNSATAASSVTVAVPALGGLIVDIGLDRQARESSDNYTNLAGGISFRTPLARRFALFAGINASQRLNRHQDAFDLGMLDANVGLSYRQHRDTYTVAAQANSLSLDDQTYRRAYGINMQWQRDIDTKNQVNLFAQVSRLAYPDNRIRDADRYIVGGGWAHVFDGDLTPLLFVSGYGGKEQARNEYADFLSYRVHGVRSGGQLTLRPNLVAFTTLGYENRRHDEPETFPFLFATREDKQLDASVGLRYLPGYNWIIKPQFTFIRNDSTVELYSFDRYMVSVSVRREFNW”, “not soluble”; for “MQWSKEEEAAARKKVKENSAVRVLLEEQVKYEREASKYWDTFYKIHKNKFFKDRNWLLREFPEILPVDQKPEEKARESSWDHVKTSATNRFSRMHCPTVPDEKNHYEKSSGSSEGQSKTESDFSNLDSEKHKKGPMETGLFPGSNATFRILEVGCGAGNSVFPILNTLENSPESFLYCCDFASGAVELVKSHSSYRATQCFAFVHDVCDDGLPYPFPDGILDVILLVFVLSSIHPDRTLFI”, “soluble”. Regarding “GPGSMSAAGVTVRRAEREDTQRMYDLIMELAIYERAPECVVVSKAQMEEEGFGERPLWSAFVAELQETNDVKPRVIGMALYYYRYSTWRGRMLYLEDFIVTESHRGIGAGKMLFERVLQQAKEEGCHGMVWQALDWNAPAIEFYKKYDAEIDPGWVNCMLKF”, the “soluble on expression in E. coli” value is given as “soluble”. For “MPPADGTSQWLRKTVDSAAVILFSKTTCPYCKKVKDVLAEAKIKHATIELDQLSNGSAIQKCLASFSKIETVPQMFVRGKFIGDSQTVLKYYSNDELAGIVNESKYDYDLIVIGGGSGGLAAGKEAAKYGAKTAVLDYVEPTPIGTTWGLGGTCVNVGCIPKKLMHQAGLLSHALEDAEHFGWSLDRSKISHNWSTMVEGVQSHIGSLNWGYKVALRDNQVTYLNAKGRLISPHEVQITDKNQKVSTITGNKIILATGERPKYPEIPGAVEYGITSDDLFSLPYFPGKTLVIGASYVALECAGFLASLGGDVTVMVRSILLRGFDQQMAEKVGDYMENHGVKFAKLCVPDEIKQLKVVDTENNKPGLLLVKGHYTDGKKFEEEFETVIFAVGREPQLSKVLCETVGVKLDKNGRVVCTDDEQTTVSNVYAIGDINAGKPQLTPVAIQAGRYLARRLFAGATELTDYSNVATTVFTPLEYGACGLSEEDAIEKYGDKDIEVYHSNFKPLEWTVAHREDNVCYMKLVCRKSDNMRVLGLHVLGPNAGEITQGYAVAIKMGATKADFDRTIGIHPTCSETFTTLHVTKKSGVSPIVSGCCG” the value was “soluble”.
